Key:
Experiment in all cases: ELISA, antibody coated, OX40-ECD.His mutant supernatant; relative to silent alanine substitutions;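 note: captured OX40 mutant protein detected with HRP-labelled anti-His antibody, absorbance read-out, scaled to the mean signal of control mutants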
human OX40-ECD.His A173G = target: T1, human OX40-ECD.His A173G (human, UniProt P43489 29-214)
T1 construct: extracellular domain; not shown: C-terminal His-tag
T1 sequence (looked up): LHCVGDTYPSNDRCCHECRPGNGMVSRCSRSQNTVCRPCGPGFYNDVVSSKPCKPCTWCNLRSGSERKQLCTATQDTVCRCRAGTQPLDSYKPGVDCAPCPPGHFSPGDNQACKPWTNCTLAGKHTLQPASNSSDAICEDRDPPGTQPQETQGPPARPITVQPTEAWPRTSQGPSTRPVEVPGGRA

human OX40-ECD.His N39A = target: T2, human OX40-ECD.His N39A (human, UniProt P43489 29-214)
T2 construct: extracellular domain; not shown: C-terminal His-tag
T2 sequence (looked up): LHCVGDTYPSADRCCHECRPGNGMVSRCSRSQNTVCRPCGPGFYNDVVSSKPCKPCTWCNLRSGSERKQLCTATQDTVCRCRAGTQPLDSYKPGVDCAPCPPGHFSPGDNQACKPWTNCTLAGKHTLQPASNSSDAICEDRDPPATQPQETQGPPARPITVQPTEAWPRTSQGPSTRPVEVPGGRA

human OX40-ECD.His S162A = target: T3, human OX40-ECD.His S162A (human, UniProt P43489 29-214)
T3 construct: extracellular domain; not shown: C-terminal His-tag
T3 sequence (looked up): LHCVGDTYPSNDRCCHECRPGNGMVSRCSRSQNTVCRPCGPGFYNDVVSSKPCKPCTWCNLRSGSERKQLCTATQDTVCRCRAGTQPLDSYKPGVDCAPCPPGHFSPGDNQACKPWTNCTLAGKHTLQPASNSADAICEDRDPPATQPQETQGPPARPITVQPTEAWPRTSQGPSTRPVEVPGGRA

human OX40-ECD.His A158G = target: T4, human OX40-ECD.His A158G (human, UniProt P43489 29-214)
T4 construct: extracellular domain; not shown: C-terminal His-tag
T4 sequence (looked up): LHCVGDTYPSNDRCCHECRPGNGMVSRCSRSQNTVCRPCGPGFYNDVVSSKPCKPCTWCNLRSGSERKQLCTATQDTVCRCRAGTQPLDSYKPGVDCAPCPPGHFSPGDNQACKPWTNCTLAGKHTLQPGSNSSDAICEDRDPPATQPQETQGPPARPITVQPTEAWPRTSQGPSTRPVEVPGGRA

human OX40-ECD.His W86A = target: T5, human OX40-ECD.His W86A (human, UniProt P43489 29-214)
T5 construct: extracellular domain; not shown: C-terminal His-tag
T5 sequence (looked up): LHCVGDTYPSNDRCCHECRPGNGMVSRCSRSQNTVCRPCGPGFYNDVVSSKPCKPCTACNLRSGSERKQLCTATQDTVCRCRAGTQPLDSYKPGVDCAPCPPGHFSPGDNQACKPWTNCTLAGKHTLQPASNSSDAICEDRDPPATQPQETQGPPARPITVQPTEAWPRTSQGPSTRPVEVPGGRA

human OX40-ECD.His P157A = target: T6, human OX40-ECD.His P157A (human, UniProt P43489 29-214)
T6 construct: extracellular domain; not shown: C-terminal His-tag
T6 sequence (looked up): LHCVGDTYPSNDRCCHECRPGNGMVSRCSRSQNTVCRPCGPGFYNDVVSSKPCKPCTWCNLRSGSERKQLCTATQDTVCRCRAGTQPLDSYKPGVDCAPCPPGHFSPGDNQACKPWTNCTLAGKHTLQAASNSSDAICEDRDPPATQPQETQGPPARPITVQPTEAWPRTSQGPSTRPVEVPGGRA

human OX40-ECD.His E94A = target: T7, human OX40-ECD.His E94A (human, UniProt P43489 29-214)
T7 construct: extracellular domain; not shown: C-terminal His-tag
T7 sequence (looked up): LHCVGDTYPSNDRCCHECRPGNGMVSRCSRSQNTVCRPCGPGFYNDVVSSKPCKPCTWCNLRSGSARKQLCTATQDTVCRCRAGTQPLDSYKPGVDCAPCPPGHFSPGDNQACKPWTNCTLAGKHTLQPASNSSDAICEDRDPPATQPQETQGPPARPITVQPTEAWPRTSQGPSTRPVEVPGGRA

human OX40-ECD.His S91A = target: T8, human OX40-ECD.His S91A (human, UniProt P43489 29-214)
T8 construct: extracellular domain; not shown: C-terminal His-tag
T8 sequence (looked up): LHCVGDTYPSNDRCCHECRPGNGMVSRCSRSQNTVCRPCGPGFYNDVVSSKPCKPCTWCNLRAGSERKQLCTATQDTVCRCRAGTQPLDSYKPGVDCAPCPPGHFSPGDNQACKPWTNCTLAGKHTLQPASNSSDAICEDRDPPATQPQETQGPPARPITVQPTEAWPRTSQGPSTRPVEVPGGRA

human OX40-ECD.His R55A = target: T9, human OX40-ECD.His R55A (human, UniProt P43489 29-214)
T9 construct: extracellular domain; not shown: C-terminal His-tag
T9 sequence (looked up): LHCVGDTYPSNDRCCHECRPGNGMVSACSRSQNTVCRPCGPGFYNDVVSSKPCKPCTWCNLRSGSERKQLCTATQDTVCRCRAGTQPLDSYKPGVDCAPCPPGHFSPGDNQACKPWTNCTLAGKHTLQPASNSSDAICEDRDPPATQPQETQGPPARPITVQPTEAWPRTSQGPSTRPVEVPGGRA

human OX40-ECD.His K120A = target: T10, human OX40-ECD.His K120A (human, UniProt P43489 29-214)
T10 construct: extracellular domain; not shown: C-terminal His-tag
T10 sequence (looked up): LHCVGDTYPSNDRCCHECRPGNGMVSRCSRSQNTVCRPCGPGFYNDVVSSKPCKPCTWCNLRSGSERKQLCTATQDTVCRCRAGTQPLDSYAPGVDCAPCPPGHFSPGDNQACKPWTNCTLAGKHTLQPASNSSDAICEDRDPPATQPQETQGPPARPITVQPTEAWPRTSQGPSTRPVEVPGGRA

B1: 1.134.9-u1-IgG1L (antibody, V domains shown)
VH: QVQLQESGPGLVKPSGTLSLTCAVSGGSISSYNWWSWVRQPPGKGLEWIGEIYHGGNTNYNPSLKSRVTMSVDNSKNQFSLKLSSVTAADTAVYYCARAPGDWGGSPYFDFWGQGTLVTVSS
VL: SSELTQDPAVSVALGQTVRITCQGDNLRTYYASWYQQKPGQAPILLIYGRNKRPSGIPDRFSGSSSGNTASLTITGAQAEDEAAYYCNSRDSSGNPVVFGGGTKLTVL
notes: fully human IgG1, lambda
Human OX40-ECD.His A173G
  Fold Change: 0.993
Human OX40-ECD.His N39A
  Fold Change: 0.988
Human OX40-ECD.His S162A
  Fold Change: 0.998
Human OX40-ECD.His A158G
  Fold Change: 1.01
Human OX40-ECD.His W86A
  Fold Change: 0.842
Human OX40-ECD.His P157A
  Fold Change: 0.992
Human OX40-ECD.His E94A
  Fold Change: 0.716
Human OX40-ECD.His S91A
  Fold Change: 0.886
Human OX40-ECD.His R55A
  Fold Change: 0.976
Human OX40-ECD.His K120A
  Fold Change: 0.896
